Residue numbers refer to the chain shown, from its start. Names and notes keep the numbering of the source.

In patent EP4772193A1 (Teijin Pharma Limited, dated 2026) one finds EC50 and Relative binding activity data, which are given here for 14 molecules.

To fix the notation:
B1: hGPN18-2_H2L3 VL Q95A (antibody, V domains shown)
VH: QVQLVQSGPGLVQPTQTLTLTCSFSGFSLSTSVMGVGWIRQPSGKGLEWLADIWWDDDKDYNPSLKSRLTISKDTSKNQVVLTMTNMDTVDTATYYCARTYYSNYEYYGMDYWGQGTLVTVSS
VL: DIVMTQSPDSLAVSLGERATINCRSSQTIILSNGNTYLEWYQQKPGQPPKLLIYKVSNRFSGVPDRFSGSGSGTDFTLTISSLQAEDVAVYYCFAGSHVPFTFGSGTKLEIKR
B2: hGPN18-2_H2L3 VL S61A (antibody, V domains shown)
VH: B1 VH
VL: B1 VL with S61A, A95Q
B3: hGPN18-2_H2L3 VL R24A (antibody, V domains shown)
VH: B1 VH
VL: B1 VL with R24A, A95Q
B4: hGPN18-2_H2L3 VL T102A (antibody, V domains shown)
VH: B1 VH
VL: B1 VL with A95Q, T102A
B5: hGPN18-2_H2L3 VL S97A (antibody, V domains shown)
VH: B1 VH
VL: B1 VL with A95Q, S97A
B6: hGPN18-2_H2L3 VL V99A (antibody, V domains shown)
VH: B1 VH
VL: B1 VL with A95Q, V99A
B7: hGPN18-2_H2L3 VL S25A (antibody, V domains shown)
VH: B1 VH
VL: B1 VL with S25A, A95Q
B8: hGPN18-2_H2L3 VL S32A (antibody, V domains shown)
VH: B1 VH
VL: B1 VL with S32A, A95Q
B9: hGPN18-2_H2L3 VL T36A (antibody, V domains shown)
VH: B1 VH
VL: B1 VL with T36A, A95Q
B10: hGPN18-2_H2L3 VL S26A (antibody, V domains shown)
VH: B1 VH
VL: B1 VL with S26A, A95Q
B11: hGPN18-2_H2L3 VL V56A (antibody, V domains shown)
VH: B1 VH
VL: B1 VL with V56A, A95Q
B12: hGPN18-2_H2L3 VL T28A (antibody, V domains shown)
VH: B1 VH
VL: B1 VL with T28A, A95Q
B13: hGPN18-2_H2L3 VL S57A (antibody, V domains shown)
VH: B1 VH
VL: B1 VL with S57A, A95Q
B14: hGPN18-2_H2L3 VL R59A (antibody, V domains shown)
VH: B1 VH
VL: B1 VL with R59A, A95Q

The first test has as its target T1, recombinant human soluble gpNMB (recombinant human gpNMB-FLAG-His) (human, UniProt Q14956 23-498).
T1 sequence: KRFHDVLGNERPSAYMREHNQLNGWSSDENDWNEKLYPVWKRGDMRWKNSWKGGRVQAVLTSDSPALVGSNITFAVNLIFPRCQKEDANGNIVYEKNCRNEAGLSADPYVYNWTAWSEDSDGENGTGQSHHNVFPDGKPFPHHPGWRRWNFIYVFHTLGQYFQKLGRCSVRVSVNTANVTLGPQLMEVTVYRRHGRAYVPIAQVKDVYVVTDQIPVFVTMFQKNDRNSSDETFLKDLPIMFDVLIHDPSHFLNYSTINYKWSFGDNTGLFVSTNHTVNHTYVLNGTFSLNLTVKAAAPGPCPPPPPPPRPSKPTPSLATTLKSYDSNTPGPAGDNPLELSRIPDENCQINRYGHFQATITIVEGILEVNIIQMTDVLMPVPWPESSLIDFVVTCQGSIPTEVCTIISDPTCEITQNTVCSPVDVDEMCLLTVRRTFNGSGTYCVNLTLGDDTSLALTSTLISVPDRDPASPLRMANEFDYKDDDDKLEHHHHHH
As to the kind of experiment: antigen ELISA. For orientation: ELISA stands for enzyme-linked immunosorbent assay.
A word on the EC50: it is the concentration that produces a half-maximal response. On to B1, for which the 50% effective concentration (EC50) stood at 5.49 nM.
On to B2, for which the concentration giving a half-maximal response (EC50) was determined as 3.63 nM.
As for B3, the EC50 was determined as 4.73 nM.
For B4, the concentration giving a half-maximal response (EC50) is 4.73 nM.
With B5, the EC50 turned out to be 3.29 nM.
Regarding B6, the EC50 was found to be 9.93 nM.
On the same count and under the same terms, to B7 belongs 3.76 nM; to B8, 8.67 nM; to B9, 4.74 nM.
For B10, the concentration giving a half-maximal response (EC50) was determined as 3.14 nM.
As to B11, the 50% effective concentration (EC50) was 2.99 nM.
The same measure, in the same setting: to B12 belongs 2.91 nM; to B13, 3.14 nM; to B14, 2.36 nM.

Another test addresses T1, recombinant human soluble gpNMB …. As to the kind of experiment: antigen ELISA, vs hGPN18-2_H2L3.
Take B1: the Relative binding activity amounted to 0.79.
As to B2, the Relative binding activity was 0.94.
For B3, the Relative binding activity is 1.04.
On to B4, for which the Relative binding activity amounted to 0.81.
Still for that read-out and setting: the value for B5 was 1.04; that for B6 was 0.81; that for B7 was 1.01.
In the case of B8, the Relative binding activity came to 0.92.
Take B9: the Relative binding activity came to 1.06.
Turning to B10, the Relative binding activity was 1.03.
On to B11, for which the Relative binding activity came out at 1.07.
On the same count and under the same terms, the value for B12 was 1.05; that for B13 was 1.05; that for B14 was 1.11.
